One molecule from patent US20030211563A1 (UNIVERSITY OF VIRGINIA PATENT FOUNDATION, published 2003) can be followed below.

This test has as its target T1, tssk 2 fused to the GAL4 DNA binding domain (DNA-BD) (human, UniProt P04386 1-147 (Saccharomyces cerevisiae entry), limits assumed).
T1 construct: Yeast two-hybrid bait in reporter strain AH109; also called bait gene (tssk 2); TSSK2 fusion protein with the DNA-BD
Put plainly: yeast two-hybrid, growth in His-free medium. The protocol: In this experiment, a bait gene (tssk 2) was first transformed into the reporter strain as a fusion to the GAL4 DNA binding domain (DNA-BD). A second plasmid that expressed tsks as fusion to the GAL 4 activation domain (AD) was also introduced into the AH109 reporter strain. Western blots were performed to confirm expression of fusion proteins in yeast. […] This interaction was used as a positive control. […] Neither GAL-AD alone nor the fusion proteins between GAL-AD and TSKS or GAL-AD and SV40 Large T antigen had the ability to activate transcription of the His gene.

B1: GAL4 activation domain alone (GAL-AD plasmid) (other, UniProt P04386 768-881, looked up)
chain: ANFNQSGNIADSSLSFTFTNSSNGPNLITTQTNSQALSQPIASSNVHDNFMNNEITASKIDDGNNSKPLSPGWTDQTAYNAFGITTGMFNTTTMDDVYNYLFDDEDTPPNPKKE
notes: Empty prey control in the yeast two-hybrid experiment; also called GAL-AD alone
For the molecule B1, the binding result is “no binding”.
